# Source: the nanobody polyreactivity screen of Harvey et al. (2022)
# Assay: yeast display, Sf9 membrane polyspecificity reagent, FACS + sequencing; frameworks hold sequencing errors
# Procedure, shortened: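 After 36–48 hours of galactose induction, yeast (Saccharomyces cerevisiae BJ5465) displaying a synthetic nanobody library were stained at 4 °C for 1 hour with 10% biotinylated, detergent-solubilized Sf9 membrane reagent. Streptavidin microbeads enriched the stained cells before FACS sorting into low and high (top ~1%) gates on anti-HA and streptavidin fluorescence. Each clone's polyreactivity label reflects its gate of origin.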
sequence,measurement,value
QVQLVESGGGLVQAGGSLRLSCAASGLTFNHYAMGWYRQAPGKERELVAAISSGSSTDYADSVKGRFTISRDNAKTTVYLQMHSLKPEDTAVYYCAVETPSTWFWGWGYDYDYWGQGTQVTVSS,polyreactivity (PSR sort gate),high polyreactivity
QDQLVESGGGLVQAGGSLRLSCAASGRTFRRNAMGWYRPAPGKERELVAAITSSGGSTYYADSVKGRFTISRDNAKNTVYLQMNSLKPEDTAVYYCNAVGKPQSSQYYYWGQGTQVTVSS,polyreactivity (PSR sort gate),high polyreactivity
QVHLVESGGGLVQAGGSLRLSCAASGRTLVPNAMGWYRQAPGKERELVAAISRSGGSTYYADSLKGRFTISRDNAKNTVYLQMNSLKPEDTAVYYCAKDKRIFYRVGSDYWGQGTQVTVSS,polyreactivity (PSR sort gate),low polyreactivity
QVQLVQSGGCLVQAGGSLRLSCAASGSTFRYKAMGWYRQAPGKERELVATITGSGGSTYYADSVKGRFTISRDNAKNTVYLQMNSLKAEDTAVYYCNARYKRAAWRYDYWGQGTQVSVSS,polyreactivity (PSR sort gate),high polyreactivity
QVQLVEAGGGLVQAGGSLRLSCAASGRIIIYNAMGWYRQPPGKERELVAAISSTGGSTNYADSVKGRFTISRDNAMNSVYLQMNSLKPEDTAVYYCNALPGRASLRYNYWGQGTQVTVSS,polyreactivity (PSR sort gate),high polyreactivity
QVQLVESGGGLVQAGGSLRLSCAASGRTFYYNAMGWYRQAPGKERELVAAISWSGGSTYYADSVKGRFTISRDNAKNTVYLQMNSLKPEDTAVYYCAADYEYSRAYGYDYWGQGTQVTVSL,polyreactivity (PSR sort gate),low polyreactivity
QVQLVESAGGLVHAGGSLRLSCADSGSTIGDNAMGWYRQAPGKEREFVASISWSGASTYYADSVKGRFTISRDNAKNTVYLQMNSLKPEDTAVYFCAVYYSYYSHLYHLLFYYWGQATQVTVSS,polyreactivity (PSR sort gate),low polyreactivity
QVQLVESGGGLVQAGGSLRLSCAASGFTFDSYAMGWYRQAPGKERELVAAITWDGGSTYYADSVKGRYTISRDNAKNTVYLQMNSLKPEETAVYYCAADFGTISIDVYSWMDYWGQGTQVTVSS,polyreactivity (PSR sort gate),low polyreactivity
QVQLVESGGGLVQAGGSLRLSCAASGSIFGLYAMGWYRQAPGKERELVAAITASDGSTYYADSVKGRFTISRDNAKNTVYLQMNSLKPEDTAVYYCNADAYSGYFLFDYWGQGTQVTVSS,polyreactivity (PSR sort gate),low polyreactivity
QVQLVESGGGLVQAGGSLRLSCAASGFIFDYYMGWYRQAPGKERELVARISYTGGSTYYADSVKGRFTISRDNAKNTVYLQMNSLNPEDTAVYYCATRGAEAERFASYDFDYWGQGTQVTVSS,polyreactivity (PSR sort gate),low polyreactivity
QVHLVESGGGLVQAGCSLRLSCAASGSTISRYAMGWNRQAPGKETELVATITGGGRTYYADSVKGRFTISRDNAKNTVYLQMNSLKPEDTAVYYCAVRGYHQYKYGYWGQGTQVTVSS,polyreactivity (PSR sort gate),high polyreactivity
QVQLVESGGGLVQAGGSLRLSCAASGRTFSTYAMGWYRQAPGKERELVAAISWRGARTYYADSVKGRFTISRDNAKNTVYLQMNSLKPEDTAVYYCAVRSLVAIRGRAYYYWGQGTQVTVSS,polyreactivity (PSR sort gate),high polyreactivity
QVQLVESGGGLVQAGGSLRLSCAASGRTFSENAMGWYRQAPGKERELVAAISGSGGRTYYADSVKGRFTISRDNAKNTVYLQMNILKPEDTAVYFCGKVTRYGSTYDYWGQGTQVTVSS,polyreactivity (PSR sort gate),high polyreactivity
QVQLVESGGGLVQAGGSLRLSCAASGFNFWRNAMGWYRQAPGKERELVAVITWSGGRTYYADSVKGRFTFSRDNAKNSVYLQMNSLKPEDSAVYYCSTEIVGPHFDYWGQGTQVTVSS,polyreactivity (PSR sort gate),low polyreactivity
QVQIEESGGGLVQAGGSLRLICAASGRIFLPYVMGWYRQAPGKERELVATITFGRSTTYADSVKGRFTISRDNAKNTVYLQMNCLKPEDTAFYYCNALSALAVEDGYWGHGTQVTVSS,polyreactivity (PSR sort gate),low polyreactivity
QVQLVESGGGLVQAGGSLRLSCAASGSIFTTYAMGWYRQAPGKERELVAAISRAGDTTYADSVKGRFTISRDNAKNTVYLQMNSLKPEDTAVYYCADYDYWGQGTQVTVSS,polyreactivity (PSR sort gate),low polyreactivity
QGQLVESGRGLVQAGGSLRLSCAASGRTFRRYGKGWYRQAPGNERELVAAITSGGGTYYEDSVKGRVTISRDNAKNTVYLQMNSLKPEDTAVYYCAAQRVYKSSPSYDFWGQGTQVTVSS,polyreactivity (PSR sort gate),low polyreactivity
QVQLVESGGGLVQAGGSLRLSCADSGSTFFRYAMGWYRQAPGKERELVAAISKSGASTYYADSVKGRFTISRDNAKNTVYLQMNSLKPEDTAVYYCNADVKKSSAREWQYGYDYWGQGTQVTVSS,polyreactivity (PSR sort gate),low polyreactivity
QVQLVESGGGLVQAGGSLRLSCAASGFTFYRNAMGWYRQAPGKERELVASISRSGGSTYYADSVKGRFTNSRDNAKNTVYLQMNSLKPEDTAVYYCAADLWWIYPHKYYYWGQGTQVTVSS,polyreactivity (PSR sort gate),high polyreactivity
QVQLQESGGGLVQAGGSLRLSCAASSNHSTLDVMGWYRQAPGKEREIVASIGSGGITNYADSVKGRFTISRDNAKNTVYLQMNSLKPEDTAVYYFAVLNQAYTDLIYWGQGTQVTVSS,polyreactivity (PSR sort gate),high polyreactivity
QVQLVESGGGLVQAGGSLRISCAASGLTIVPNAMGWYRQAPGKERELVAAISNNGGRTYYADSVKGRFTISRDNAKNTVYLQMNSLKPEDTAVYYCAKYLSPGERHSYDYWGQGTQVTVSS,polyreactivity (PSR sort gate),high polyreactivity
QVQLVESGGGLVQAGGSLRLSCAASGRIFYRNAMGWYRQAPGKDRELVAGISKRGGSTYYADSVKGRFTISRDNAKNTVYLQMTSLKPEDTAVYYCNKVSFLNSHKSRGNRYYYWGQGTQVTVSS,polyreactivity (PSR sort gate),high polyreactivity
QVQLVESGGGLVQAGGSLPLSCAASGFIFPGYAMGWYRQAPGKERELVAVISSRGGSTKYADSVKGRFTISRDNANYSVYLQMNSLNPEDTAVYYCAAARAPRKYDSWGQGTQVTVSS,polyreactivity (PSR sort gate),high polyreactivity
QVQLVESGGGLVQAGGSHRLSCAASGSTFGDYAMGWYRQAPGKERELVAAISVRGGSTYYADSVKGRFTISRDNAKNTVYLQMNSLKPVVTAVYYCNKDLYRYPGYDYWGQGTQVTVSS,polyreactivity (PSR sort gate),high polyreactivity
QVQLVESGGGLVQAGGSLRLRCAASGSTFDSYAMGWYRQAPGKERELVAAITTTGGSTFYADSVKGRFTISRDYAKNTVYLQMNSLKPEDTAVYYCAADDGWQEFEYWGQGTQVTVSS,polyreactivity (PSR sort gate),low polyreactivity
QVQLGESGGGLVQAGGSLRLSCAASGITFNGYAMGWSRQAPGKERQLVASAIRGTSGSTYYADSVKGRFTISRDNAKNTDYLQMNSLKPEDTTVYYCNADIVIQGVIYYYRNFEYWGQGTQVTVSS,polyreactivity (PSR sort gate),low polyreactivity
QVQLVESGGGLVQAGGSLRLSCAASGNTFSWYAMGWYRQAPWKERELVAVITSGGSTNYADSVKGRFTISRDNAKNTVYLQMNSLKTEDTAVYYFAADSYGGSKYDYWGQGTQVTVSS,polyreactivity (PSR sort gate),low polyreactivity
QVQLVESGGGLVQAGGILRLSCAASGLTFSRYDMGWYRPEPGKERELVAAITWSGSSTYYADSVKGRFTLSRDNAKNTVYLQMNSLKRVDTAVYYCAARYGYSRGPYYRSYYWGQGTQVTVSS,polyreactivity (PSR sort gate),high polyreactivity
QVQLVESGGGLVQAGGSLRLSCAASGRIFKTYAMGWYRQAPGKERELVAAISIRGGSTYYAESVKGRFTISRDNAKNTVYLQMNSLKPEDTAVYYCNALYGRQIVDYDYWGQGTQVTVSS,polyreactivity (PSR sort gate),low polyreactivity
QVQLVESGGGLVQAGGSLRLSCAASGRTFHSNAMGWYRQAPGKERELFAAISYSGGSTYYADSVKGRFTISRDNAKNTVYLQMNSLKPEDTAVYYCNAGAVHKKPARDYWGQGTKVTVSS,polyreactivity (PSR sort gate),low polyreactivity
QVQLVESGGGLVHAGGSLRLSCSASGFTFYKYAMGWYRQAPGKERELVAAFSYSGGSTYYADSVKGRFTISRDNAKNTVYLQMNSLKPEDTAVYYCAARVRGTGYNSWGQGTLVTVSS,polyreactivity (PSR sort gate),high polyreactivity
QVQLVESGGGLVQAGGSLRLSCAASGFTFYSNAMGWYRQAPGKERELVAAISGSGGRTYYADSVKGRFTISRDNAKNTVYLQMNSLKPEDTAVYYCAAKFTTGYYYGVPRDYWGQGTQVTVSS,polyreactivity (PSR sort gate),high polyreactivity
QVQLVESGGGLLQAGGSLRLSCAASGSTSPANAMGWYRQAPGKERELVAVINSGGGTNYADSVKGRFTISRDNAKNTVYLQMNCLKPEDTAVYYCAKGYRRSFIGYWYLKYGYWGQGSQVTVSS,polyreactivity (PSR sort gate),high polyreactivity
QVQLGESGAGIVQAGGSLRLSCAASGSTFQTYAMGWYRQAPGKERELVAAITWRGGSTYYAHSVKGRFTISRDNAKNTVYLQMNSLKPEDTAVYYCAAKWLGAHDHRAAYDSWGQGTQVTVSS,polyreactivity (PSR sort gate),low polyreactivity
QVQLVESGGGLVQAGGSLRLSCAASGSIFDYNAMGWYRQAPGKERELVAAISVSGGSTYYADSVKGRFTISRDNAKNTVYLQMNSLKPEDTAVYYCAAETWTYGWSYDYWGQGTQVTVSS,polyreactivity (PSR sort gate),high polyreactivity
QVHLVESGGGLVQAGGSLRLSCAASGSIFFTYAMGWYRQAPGKETEWVAAISSGGSPYYADSVKGRFTISRDNANNTVYLQMNSLKPEDTEVYYCAARGYRLVPVDFSYWGQGTQVTVSS,polyreactivity (PSR sort gate),low polyreactivity
QVQLVESGGGLVQAGGSLRLSCAASGFTFSSYVMGWYRQAPGKERELVAAISGSGGSTYYADSVKGRFTISRDNAKNTVYLQMNSLKPEDTAVYYCAAVRRVGPTSYYYWGQGTQVTVSS,polyreactivity (PSR sort gate),high polyreactivity
QVQLVESGGGLVQAGGSLRLSCAASGSIFVGYAMGWYRQAPGKEREVVAAISSSGTSTYYADSVKGRFTISRDNAKNTVYLQMNSLKPEDTAVYYCNARWYVPAYEFDYWGHGTQVTVSS,polyreactivity (PSR sort gate),low polyreactivity
QVHLVESGGGLVQAGGSLRLSCAASGSTLSFYARGWYRQAPGKERELVAAISSSGGSTYYADSVKGRFTISRDNAKNTVYLQMNSLKPEDTAVYYCNAVRRNYGYDYWGQGTQVTVSS,polyreactivity (PSR sort gate),high polyreactivity
QVQLVESGGGLVQAGGSLRLSCAASGSNVHYMGGERQAPGKERELVAGISWSGGSTYYADSVMGRFTISRDNAKNTVYLQMNSLKPEDTAVDYCAADYYAHQDYRFDYWGQGTQVTVSS,polyreactivity (PSR sort gate),low polyreactivity
QVQLVESGGGLVQAGGSLRLSCAPSGIIFKGYAMGWSRQAPGKERELVAAISHNADSTYADSVKGRFTISRDNAKNTVYLQMNSLKPEDTAVYYCNADYLYHQTSRGKYYSWGQGTQVTVSS,polyreactivity (PSR sort gate),low polyreactivity
QVQLVESGGGLVQAGGILRLSCAASGIIFQQYAMGWYRQAPGKERELVAAITYSGDGTYYADSEKGRFTISRDNAKNTVYLQMNSLKPEDTAVYYCNTDRKSRWARYEYWGQGTQVTVSS,polyreactivity (PSR sort gate),low polyreactivity
QVQLVESGGGLVQAGGSLRLSCAASVSTFYSYAMGAYRKAPGKERELVATISTRGGSTYYADSVKGRFTISRDNAKNTVYLHMNSLKPEDTAVYYCNVRLEYRYYRGDYWGHGTQVTVSS,polyreactivity (PSR sort gate),high polyreactivity
